What was measured:
LptF^E84A = biological target: T1, LptF^E84A (E. coli, UniProt P0AF98 1-366, E84A); experiment: cell-based or functional assay
T1 sequence (looked up): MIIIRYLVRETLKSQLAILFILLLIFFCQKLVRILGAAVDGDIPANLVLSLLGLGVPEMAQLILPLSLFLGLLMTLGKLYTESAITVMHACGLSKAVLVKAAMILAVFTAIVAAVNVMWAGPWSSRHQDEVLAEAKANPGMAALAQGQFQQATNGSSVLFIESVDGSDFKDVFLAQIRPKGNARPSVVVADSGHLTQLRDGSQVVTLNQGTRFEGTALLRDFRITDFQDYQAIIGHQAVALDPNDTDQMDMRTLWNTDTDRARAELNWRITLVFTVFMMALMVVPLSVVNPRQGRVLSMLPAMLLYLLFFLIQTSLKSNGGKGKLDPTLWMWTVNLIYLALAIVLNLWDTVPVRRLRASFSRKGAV

LptG^E88A = biological target: T2, LptG^E88A (E. coli, UniProt P0ADC6 1-360, E88A); experiment: cell-based or functional assay
T2 sequence (looked up): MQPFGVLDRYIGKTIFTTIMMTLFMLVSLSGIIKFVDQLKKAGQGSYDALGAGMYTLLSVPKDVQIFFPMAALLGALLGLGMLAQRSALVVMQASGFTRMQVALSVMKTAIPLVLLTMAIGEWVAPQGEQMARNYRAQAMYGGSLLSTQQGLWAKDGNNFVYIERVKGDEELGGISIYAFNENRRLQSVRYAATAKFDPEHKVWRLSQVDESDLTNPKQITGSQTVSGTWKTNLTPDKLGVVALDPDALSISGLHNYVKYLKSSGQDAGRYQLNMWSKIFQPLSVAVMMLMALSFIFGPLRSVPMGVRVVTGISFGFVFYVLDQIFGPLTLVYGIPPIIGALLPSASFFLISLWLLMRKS

B1: LptB^WT (enzyme, E. coli, UniProt P0A9V1 1-241, looked up)
chain: MATLTAKNLAKAYKGRRVVEDVSLTVNSGEIVGLLGPNGAGKTTTFYMVVGIVPRDAGNIIIDDDDISLLPLHARARRGIGYLPQEASIFRRLSVYDNLMAVLQIRDDLSAEQREDRANELMEEFHIEHLRDSMGQSLSGGERRRVEIARALAANPKFILLDEPFAGVDPISVIDIKRIIEHLRDSGLGVLITDHNVRETLAVCERAYIVSQGHLIAHGTPTEILQDEHVKRVYLGEDFRL
ATPase activity of purified LptB2FG-LptC-His7 complexes relative to the WT complex (LptF^E84A): ~0.15 % of the ATPase activity of WT complexes | ATPase activity of purified LptB2FG-LptC-His7 complexes relative to the WT complex (LptG^E88A): ~0.15 % of the ATPase activity of WT complexes

— PMC5082905, “Identification of Residues in the Lipopolysaccharide ABC Transporter That Coordinate ATPase Activity with Extractor Function” (mBio, 2016)
